The results in this text go back to paper PMC10202384.

Broadly, the Kd is the concentration at which binding is half-saturated. The term stoichiometry N denotes a count of units in the complex or per binding partner.

In this assay the target is recombinant monomeric RBD of the SARS-CoV-2 spike protein, tag cleaved, labelled with Alexa Fluor 488 (SARS-CoV-2) (UniProt P0DTC2). In words: fluorescence polarisation. In general terms: In fluorescence polarisation assays a small probe gives low polarisation when free and higher when bound to something large.

As for “platelet-derived purified human αIIbβ3 protein (from UniProt P05106 27-788) (complex)”, the Kd was 96 nM and the stoichiometry N worked out at 1.3.
